# Target: HLA-A*02:01
# Assay: IEDB peptide-MHC binding, purified MHC/competitive/radioactivity; ≥ and ≤ were set here for values at or beyond the usual limits of such assays
# Details: source organism: Influenza A virus
row,Sequence,IC50
1,LLFLKVPA,266 nM
2,QIAILVTTV,1090 nM
3,QLMWALGENMA,848 nM
4,RTMAWTVVNSI,650 nM

# Same assay, conditions: source organism: Mammarenavirus brazilense
row,Sequence,IC50
1,LTSLGLLYTV,218 nM
2,MVNHSTYYV,27 nM
3,NLSNCVHPAV,153 nM
4,QLFSFFEEV,12 nM
5,QLIFFLTLA,122 nM

# Same assay, conditions: source organism: Mammarenavirus choriomeningitidis
row,Sequence,IC50
1,NISGYNFSL,642 nM
2,NLNQVIQSV,28 nM
3,SIISHNFCNL,3680 nM
4,SLAADLEKL,45 nM
5,SLNQTVHSL,53 nM

# Same assay, conditions: source organism: Mammarenavirus juninense
row,Sequence,IC50
1,SLFLHLVGI,1.5 nM
2,SLIAIIKGIV,763 nM
3,SLIAIIKGV,12 nM
4,SLKAFFSWSL,1600 nM

# Same assay, conditions: source organism: Mammarenavirus lassaense
row,Sequence,IC50
1,LMDCIMFDAA,595 nM
2,NLYDHALMSI,3.9 nM
3,RLLGTFTWTL,5.1 nM
4,RMAWGGSYIA,294 nM
5,SIISTFHLSI,714 nM
6,SLQSAGFTA,1250 nM

# Same assay, conditions: source organism: Mammarenavirus machupoense
row,Sequence,IC50
1,MVDEEPAAL,998 nM
2,NLTEMQEAV,547 nM
3,SLIKSTLQV,248 nM
4,SLLPLSLLFL,7.3 nM

# Same assay, conditions: source organism: Mammarenavirus whitewaterense
row,Sequence,IC50
1,LLQFIVFLL,159 nM
2,MIITAVNSL,2430 nM
3,MIITAVNSLI,438 nM
4,MINDTHFLL,265 nM
5,NASYITPYV,263 nM
6,QLDMIITAV,57 nM

# Same assay, conditions: source organism: Vaccinia virus WR
row,Sequence,IC50
1,LLFFLALSI,26 nM
2,LLFILFYFA,85 nM
3,LLFLVCFPST,413 nM
4,LLHVFQEYRL,27 nM
5,LLIHFLLSL,17 nM
6,LLISMYCSKT,1150 nM
7,LLLDYMTST,7 nM
8,LLLETKTILV,3.3 nM
9,LLLLLFHSYA,9.7 nM
10,LLLWPLYVL,0.21 nM
11,LLMMTLPSI,0.11 nM
12,LLMTSLQYA,2.5 nM
13,LLNLLLWPL,0.073 nM
14,LLNPCLINV,3.4 nM
15,LLPGFVLTCI,3.7 nM
16,LLSAINFKI,0.54 nM
17,LLSKNTFYL,3.1 nM
18,LLSLFSTLV,12 nM
19,LLSLLVIWI,148 nM
20,LLSLLVIWIL,112 nM
21,LLSQYLSRV,1 nM
22,LLSSVDYKNI,908 nM
23,LLSYYVVYV,0.46 nM
24,LLVAPMPTA,13 nM
25,LLVQRVTSV,3.1 nM
26,LLYAHINAL,8.3 nM

row,Sequence,IC50
1,LLYILRYIV,138 nM
2,LLYLILFLL,2200 nM
3,LMDSIFVST,0.72 nM
4,LMEVFPQLDL,244 nM
5,LMGTITLNA,173 nM
6,LMIEYNLLT,1.5 nM
7,LMIFISSFLL,27 nM
8,LMMSCISCI,12 nM
9,LMMTLPSIFL,0.2 nM
10,LMPIRTDTT,2170 nM
11,LMSNIKTMMI,1560 nM
12,LMSTLLIYL,0.13 nM
13,LMYDIINSV,1.8 nM
14,LQISQCQRI,1370 nM
15,LQKFSFKIA,4660 nM
16,LQYDLWNVV,22 nM
17,LTDKKTFII,881 nM
18,LTDSLSSQM,4270 nM
19,LTFNFTPKI,251 nM
20,LTFWQIDYL,7.3 nM
21,LTIMGVIFL,608 nM
22,LTIMGVIFLI,9.4 nM
23,LTNEIYASI,864 nM
24,LTNEIYASII,4330 nM
25,LTNVVNIST,3980 nM
26,LTREMGFLV,2360 nM

row,Sequence,IC50
1,LTVLGLGLSL,1930 nM
2,LVASLNPNM,387 nM
3,LVDAIDNIV,37 nM
4,LVDICDRIV,2140 nM
5,LVDNVDFAT,461 nM
6,LVDNVDFATI,3670 nM
7,LVFIKPPLI,55 nM
8,LVITINYFL,25 nM
9,LVLGIALLYI,6.7 nM
10,LVVDNGELM,3600 nM
11,MASPENVIL,846 nM
12,MIDDSIEGI,210 nM
13,MISRHCCIL,1030 nM
14,MITMSAFLI,422 nM
15,MITMSAFLIV,386 nM
16,MIYGLIACL,8.5 nM
17,MLFVNDLMT,747 nM
18,MLFVNDLMTM,51 nM
19,MLIEVILTA,5 nM
20,MLLALVALV,0.42 nM
21,MLLHVGIPL,1.4 nM
22,MLMFIFTGI,0.38 nM
23,MLNFSIYSV,0.15 nM
24,MLNGIMYRL,0.35 nM
25,MLPKQDIVGL,96 nM
26,MLVNRMQRI,48 nM

row,Sequence,IC50
1,MLYFAGGLSV,0.35 nM
2,MMCYFLTATL,18 nM
3,MMIDDFGTA,3.2 nM
4,MMKTYIEFV,4.7 nM
5,MMMMKWIISI,10 nM
6,MMWDLKKKGL,103 nM
7,MQRIISLSV,454 nM
8,MTFGDIPLV,0.98 nM
9,MTLSCNGET,1940 nM
10,MTPSPFYTV,6.4 nM
11,MTPSPFYTVM,1700 nM
12,MVISLLSMI,155 nM
13,MVNTVLITV,121 nM
14,NAPIKTFML,3410 nM
15,NIEKYFTFLV,1450 nM
16,NIHSEMYSL,580 nM
17,NIIDWQFAI,5.4 nM
18,NISTILYFT,128 nM
19,NIVIFVKRL,1280 nM
20,NIVWEKKSLV,63 nM
21,NIWAIIPLSA,87 nM
22,NIYCLEYINT,882 nM
23,NIYLNFPWL,1210 nM
24,NLATSIYTI,1.2 nM
25,NLFDIPLLTV,0.33 nM
26,NLFTFLHEI,1.1 nM

row,Sequence,IC50
1,NLLLWPLYV,0.12 nM
2,NLLSKNTFYL,1.4 nM
3,NLNIVRDML,2760 nM
4,NLNIVRDMLV,28 nM
5,NLNMTDGDSV,4320 nM
6,NLPEDIKRV,151 nM
7,NLPSSENYM,135 nM
8,NLVKLSSYHV,1420 nM
9,NLVKWPLLNI,146 nM
10,NLYDDNDIRT,40 nM
11,NMISDTIFV,2.2 nM
12,NMNYSDDYMM,2640 nM
13,NMQTVKLFV,12 nM
14,NQLYLTVSFI,520 nM
15,NTFYLFTFT,492 nM
16,NTFYLFTFTI,55 nM
17,NTIDQTANV,162 nM
18,NTSWNDTVT,146 nM
19,NVDNLIMIV,170 nM
20,NVDSTDELM,1940 nM
21,NVFETRIVM,2640 nM
22,NVFKYLTSV,0.75 nM
23,NVVSSSTIA,588 nM
24,NVYPGVWNT,830 nM
25,PAVVYSTCTV,2310 nM
26,PIKFIAEFLV,4460 nM

row,Sequence,IC50
1,PITDSLSFKL,2660 nM
2,PLGILSNYV,2710 nM
3,PLLFILFYFA,42 nM
4,PLLNIGIVL,1420 nM
5,PLYEVNSTM,4580 nM
6,PLYEVNSTMT,3420 nM
7,PMLYQLLEA,1070 nM
8,PMLYQLLEAV,1090 nM
9,PVLMFLLFYV,69 nM
10,PVNAINDRL,3460 nM
11,QAIMESDSFL,67 nM
12,QAKTKNFTI,3800 nM
13,QIFEVYWYL,11 nM
14,QLEHGSCQPV,16 nM
15,QLLEAVYGNI,199 nM
16,QLVDAIDNI,154 nM
17,QLVDAIDNIV,101 nM
18,QLVWENFLA,22 nM
19,QLYLTVSFI,3280 nM
20,QMTSTFIML,420 nM
21,QTANVVFRYM,729 nM
22,QTCAGVIEYA,359 nM
23,QTSVFSATV,1670 nM
24,RIDKTMKYI,2660 nM
25,RIDMIDNLNI,2550 nM
26,RIIDSEVVV,94 nM

row,Sequence,IC50
1,RINDDSKSIL,4360 nM
2,RIPNSLHSL,670 nM
3,RISGSNIVI,3670 nM
4,RISMVISLL,1460 nM
5,RLESYHRFDM,3330 nM
6,RLFSYNFTT,0.23 nM
7,RLHKECLLRL,447 nM
8,RLIVLFEVFV,103 nM
9,RLKSSQTIEL,338 nM
10,RLLDDLVIV,0.65 nM
11,RLLDLFGPEV,0.98 nM
12,RLNDFLGLL,11 nM
13,RLNPEVSYFT,128 nM
14,RLSLNRTIV,849 nM
15,RLSTEERHI,708 nM
16,RLVDFFPDI,0.14 nM
17,RLYDLTRYA,4 nM
18,RLYDYFTRV,11 nM
19,RMILYLESV,1.8 nM
20,RMQRISGSNI,4330 nM
21,RQIFIHYSV,0.65 nM
22,RTCSNWVPL,4.9 nM
23,RTFLIDLAFL,6.6 nM
24,RTLDTAIFT,3430 nM
25,RTLLGLILFV,20 nM
26,RTLLPILLL,307 nM

row,Sequence,IC50
1,RTNEEFDPV,140 nM
2,RTSQKGTVA,765 nM
3,RTVIHLEWL,514 nM
4,RTVIHLEWLL,134 nM
5,RVETSPRPT,1960 nM
6,RVFNEYGFV,190 nM
7,RVFNEYGFVL,535 nM
8,RVIGLCIRI,17 nM
9,RVNVFETRI,1960 nM
10,RVQSFKINI,769 nM
11,RVYEALYYV,1.5 nM
12,RVYKTIWEI,285 nM
13,SASVFYRGA,2050 nM
14,SIDIETESV,235 nM
15,SIDQKKSYV,188 nM
16,SIEGELESL,3940 nM
17,SIFGFQAEV,0.54 nM
18,SIFINKLNGA,1820 nM
19,SIINRDIIV,699 nM
20,SIINRDIIVI,826 nM
21,SILISLTNEI,283 nM
22,SIRFHIKEL,1560 nM
23,SIRLELVNLI,2170 nM
24,SISVVFSTNL,2890 nM
25,SITKEKIKI,4810 nM
26,SIYECITFL,77 nM

row,Sequence,IC50
1,SLDSLVHLL,3.3 nM
2,SLDVINYLI,0.55 nM
3,SLEATYHII,762 nM
4,SLEATYHIII,4980 nM
5,SLFSLLLVI,5.8 nM
6,SLHSLSVET,266 nM
7,SLHSLSVETI,95 nM
8,SLLDEDSKI,99 nM
9,SLLRKFLYCI,338 nM
10,SLLVAPMPT,935 nM
11,SLLVIWILIV,1020 nM
12,SLMDMITLSL,0.59 nM
13,SLNLTIVSV,26 nM
14,SLNRTIVTKV,67 nM
15,SLQTCAGVI,2850 nM
16,SLSKQDISL,67 nM
17,SLSLHPLYV,9.8 nM
18,SLSSIRFHI,11 nM
19,SLSSQMTST,2000 nM

# Reference: the Immune Epitope Database (IEDB)
